# Laboratory results taken from article PMC4141198, “The conserved ubiquitin-like protein Hub1 plays a critical role in splicing in human cells” (Journal of Molecular Cell Biology, 2014).
# T1: 6xHis-tagged human Hub1 (human, UniProt Q9BZL1 1-73)
# T1 construct: human Hub1 (UBL5) expressed from pET28a; also called UBL5; purified Hub1; source: E. coli BL21-CodonPlus (DE3)-RIL, purified (Ni-NTA, Superdex 75)
# T1 sequence: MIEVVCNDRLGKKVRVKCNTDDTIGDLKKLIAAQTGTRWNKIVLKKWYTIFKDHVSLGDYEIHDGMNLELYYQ
# Biological target: T1, 6xHis-tagged human Hub1
# Experiment: crystal structure; Hub1 mixed with the HIND peptide at a molar ratio of 1:3, complex separated on Superdex 75; crystals at 20°C in 0.1 M Tris/HCl pH 9.0, 0.15 M sodium acetate, 20% PEG 4000; 2.0 Å
# Details: both partners purified
binder,measurement,value
"SLSIEETNKLRAKLGLKPL (residues 117-135 of human Snu66 (SART1), the single HIND element; source: synthetic peptide) [hSnu66 HIND peptide (residues 117-135)]",binding result,binds
